Results reported in the supplement of paper PMC12458215.
± gives the uncertainty stated by the source.

Test system: HEK293T
Assay: plasma membrane surface immunostaining intensity (anti-HA, deep receptor scanning) (arbitrary fluorescence units); higher = higher plasma membrane expression

Sequence | plasma membrane surface immunostaining intensity (GPCR class: A) | plasma membrane surface immunostaining intensity (GPCR class: A (Olfactory)) | also measured
MVLEVSDHQVLNDAEVAALLENFSSSYDYGENESDSCCTSPPCPQDFSLNFDRAFLPALYSLLFLLGLLGNGAVAAVLLSRRTALSSTDTFLLHLAVADTLLVLTLPLWAVDAAVQWVFGSGLCKVAGALFNINFYAGALLLACISFDRYLNIVHATQLYRRGPPARVTLTCLAVWGLCLLFALPDFIFLSAHHDERLNATHCQYNFPQVGRTALRVLQLVAGFLLPLLVMAYCYAHILAVLLVSRGQRRLRAMRLVVVVVVAFALCWTPYHLVVLVDILMDLGALARNCGRESRVDVAKSVTSGLGYMHCCLNPLLYAFVGVKFRERMWMLLLRLGCPNQRGLQRQPSSSRRDSSWSETSEASYSGL [CXCR3] | 530 ± 49 | – | –
MGKENCTTVAEFILLGLSDVPELRVCLFLLFLLIYGVTLLANLGMIALIQVSSRLHTPMYFFLSHLSSVDFCYSSIIVPKMLANIFNKDKAISFLGCMVQFYLFCTCVVTEVFLLAVMAYDRFVAICNPLLYTVTMSWKVRVELASCCYFCGTVCSLIHLCLALRIPFYRSNVINHFFCDLPPVLSLACSDITVNETLLFLVATLNESVTIMIILTSYLLILTTILKMGSAEGRHKAFSTCASHLTAITVFHGTVLSIYCRPSSGNSGDADKVATVFYTVVIPMLNSVIYSLRNKDVKEALRKVMGSKIHS [OR5L1] | – | 145 ± 28 | –
MKSDNHSFLGDSPKAFILLGVSDRPWLELPLFVVLLLSYVLAMLGNVAIILASRVDPQLHSPMYIFLSHLSFLDLCYTTTTVPQMLVNMGSSQKTISYGGCTVQYAVFHWLGCTECIVLAAMALDRYVAICKPLHYAVLMHRALCQQLVALAWLSGFGNSFVQVVLTVQLPFCGRQVLNNFFCEVPAVIKLSCADTAVNDTILAVLVAFFVLVPLALILLSYGFIARAVLRIQSSKGRHKAFGTCSSHLMIVSLFYLPAIYMYLQPPSSYSQEQGKFISLFYSIITPTLNPFTYTLRNKDMKGALRRLLARIWRLCG [OR2B11] | – | 238 ± 84 | –
MKLGSSRAGPGRGSAGLLPGVHELPMGIPAPWGTSPLSFHRKCSLWAPGRPFLTLVLLVSIKQVTGSLLEETTRKWAQYKQACLRDLLKEPSGIFCNGTFDQYVCWPHSSPGNVSVPCPSYLPWWSEESSGRAYRHCLAQGTWQTIENATDIWQDDSECSENHSFKQNVDRYALLSTLQLMYTVGYSFSLISLFLALTLLLFLRKLHCTRNYIHMNLFASFILRTLAVLVKDVVFYNSYSKRPDNENGWMSYLSEMSTSCRSVQVLLHYFVGANYLWLLVEGLYLHTLLEPTVLPERRLWPRYLLLGWAFPVLFVVPWGFARAHLENTGCWTTNGNKKIWWIIRGPMMLCVTVNFFIFLKILKLLISKLKAHQMCFRDYKYRLAKSTLVLIPLLGVHEILFSFITDDQVEGFAKLIRLFIQLTLSSFHGFLVALQYGFANGEVKAELRKYWVRFLLARHSGCRACVLGKDFRFLGKCPKKLSEGDGAEKLRKLQPSLNSGRLLHLAMRGLGELGAQPQQDHARWPRGSSLSECSEGDVTMANTMEEILEESEI [GLP2R] | – | – | plasma membrane surface immunostaining intensity (GPCR class: B): 121 ± 21
MITLNNQDQPVPFNSSHPDEYKIAALVFYSCIFIIGLFVNITALWVFSCTTKKRTTVTIYMMNVALVDLIFIMTLPFRMFYYAKDEWPFGEYFCQILGALTVFYPSIALWLLAFISADRYMAIVQPKYAKELKNTCKAVLACVGVWIMTLTTTTPLLLLYKDPDKDSTPATCLKISDIIYLKAVNVLNLTRLTFFFLIPLFIMIGCYLVIIHNLLHGRTSKLKPKVKEKSIRIIITLLVQVLVCFMPFHICFAFLMLGTGENSYNPWGAFTTFLMNLSTCLDVILYYIVSKQFQARVISVMLYRNYLRSMRRKSFRSGSLRSLSNINSEML [GPR18] | 360 ± 120 | – | –
MELRNSTLGSGFILVGILNDSGSPELLYATFTILYMLALTSNGLLLLAITIEARLHMPMYLLLGQLSLMDLLFTSVVTPKALADFLRRENTISFGGCALQMFLALTMGSAEDLLLAFMAYDRYVAICHPLKYMTLMSPRVCWIMVATSWILASLIAIGHTMYTMHLPFCVSWEIRHLLCEIPPLLKLACADTSRYELIIYVTGVTFLLLPISAIVASYTLVLFTVLRMPSNEGRKKALVTCSSHLIVVGMFYGAATFMYVLPSSFHSPKQDNIISVFYTIVTPALNPLIYSLRNKEVMRALRRVLGKYILLAHSTL [OR2AG2] | – | 164 ± 69 | –
MSSNSSLLVAVQLCYANVNGSCVKIPFSPGSRVILYIVFGFGAVLAVFGNLLVMISILHFKQLHSPTNFLVASLACADFLVGVTVMPFSMVRTVESCWYFGRSFCTFHTCCDVAFCYSSLFHLCFISIDRYIAVTDPLVYPTKFTVSVSGICISVSWILPLMYSGAVFYTGVYDDGLEELSDALNCIGGCQTVVNQNWVLTDFLSFFIPTFIMIILYGNIFLVARRQAKKIENTGSKTESSSESYKARVARRERKAAKTLGVTVVAFMISWLPYSIDSLIDAFMGFITPACIYEICCWCAYYNSAMNPLIYALFYPWFRKAIKVIVTGQVLKNSSATMNLFSEHI [TAAR6] | 175 ± 65 | – | –
MDVLSPGQGNNTTSPPAPFETGGNTTGISDVTVSYQVITSLLLGTLIFCAVLGNACVVAAIALERSLQNVANYLIGSLAVTDLMVSVLVLPMAALYQVLNKWTLGQVTCDLFIALDVLCCTSSILHLCAIALDRYWAITDPIDYVNKRTPRRAAALISLTWLIGFLISIPPMLGWRTPEDRSDPDACTISKDHGYTIYSTFGAFYIPLLLMLVLYGRIFRAARFRIRKTVKKVEKTGADTRHGASPAPQPKKSVNGESGSRNWRLGVESKAGGALCANGAVRQGDDGAALEVIEVHRVGNSKEHLPLPSEAGPTPCAPASFERKNERNAEAKRKMALARERKTVKTLGIIMGTFILCWLPFFIVALVLPFCESSCHMPTLLGAIINWLGYSNSLLNPVIYAYFNKDFQNAFKKIIKCKFCRQ [HTR1A] | 5670 ± 440 | – | –
MVFLSGNASDSSNCTQPPAPVNISKAILLGVILGGLILFGVLGNILVILSVACHRHLHSVTHYYIVNLAVADLLLTSTVLPFSAIFEVLGYWAFGRVFCNIWAAVDVLCCTASIMGLCIISIDRYIGVSYPLRYPTIVTQRRGLMALLCVWALSLVISIGPLFGWRQPAPEDETICQINEEPGYVLFSALGSFYLPLAIILVMYCRVYVVAKRESRGLKSGLKTDKSDSEQVTLRIHRKNAPAGGSGMASAKTKTHFSVRLLKFSREKKAAKTLGIVVGCFVLCWLPFFLVMPIGSFFPDFKPSETVFKIVFWLGYLNSCINPIIYPCSSQEFKKAFQNVLRIQCLCRKQSSKHALGYTLHPPSQAVEGQHKDMVRIPVGSRETFYRISKTDGVCEWKFFSSMPRGSARITVSKDQSSCTTARVRSKSFLQVCCCVGPSTPSLDKNHQVPTIKVHTISLSENGEEV [ADRA1A] | 2110 ± 600 | – | –
MDSFNYTTPDYGHYDDKDTLDLNTPVDKTSNTLRVPDILALVIFAVVFLVGVLGNALVVWVTAFEAKRTINAIWFLNLAVADFLSCLALPILFTSIVQHHHWPFGGAACSILPSLILLNMYASILLLATISADRFLLVFKPIWCQNFRGAGLAWIACAVAWGLALLLTIPSFLYRVVREEYFPPKVLCGVDYSHDKRRERAVAIVRLVLGFLWPLLTLTICYTFILLRTWSRRATRSTKTLKVVVAVVASFFIFWLPYQVTGIMMSFLEPSSPTFLLLKKLDSLCVSFAYINCCINPIIYVVAGQGFQGRLRKSLPSLLRNVLTEESVVRESKSFTRSTVDTMAQKTQAV [C5AR1] | 6196 ± 24 | – | –
MAEHDYHEDYGFSSFNDSSQEEHQDFLQFSKVFLPCMYLVVFVCGLVGNSLVLVISIFYHKLQSLTDVFLVNLPLADLVFVCTLPFWAYAGIHEWVFGQVMCKSLLGIYTINFYTSMLILTCITVDRFIVVVKATKAYNQQAKRMTWGKVTSLLIWVISLLVSLPQIIYGNVFNLDKLICGYHDEAISTVVLATQMTLGFFLPLLTMIVCYSVIIKTLLHAGGFQKHRSLKIIFLVMAVFLLTQMPFNLMKFIRSTHWEYYAMTSFHYTIMVTEAIAYLRACLNPVLYAFVSLKFRKNFWKLVKDIGCLPYLGVSHQWKSSEDNSKTFSASHNVEATSMFQL [CXCR6] | 967 ± 65 | – | –
MWQEYYFLNVFFPLLKVCCLTINSHVVILLPWECYHLIWKILPYIGTTVGSMEEYNTSSTDFTFMGLFNRKETSGLIFAIISIIFFTALMANGVMIFLIQTDLRLHTPMYFLLSHLSLIDMMYISTIVPKMLVNYLLDQRTISFVGCTAQHFLYLTLVGAEFFLLGLMAYDRYVAICNPLRYPVLMSRRVCWMIIAGSWFGGSLDGFLLTPITMSFPFCNSREINHFFCEAPAVLKLACADTALYETVMYVCCVLMLLIPFSVVLASYARILTTVQCMSSVEGRKKAFATCSSHMTVVSLFYGAAMYTYMLPHSYHKPAQDKVLSVFYTILTPMLNPLIYSLRNKDVTGALKRALGRFKGPQRVSGGVF [OR2T1] | – | 451 ± 170 | –
